Laboratory results as given in publication PMC5360572 (EBioMedicine, 2017).

B1: human PD-L2 Ig fusion protein (Fc fusion, UniProt Q9BQ51 20-220, looked up)
chain: LFTVTVPKELYIIEHGSNVTLECNFDTGSHVNLGAITASLQKVENDTSPHRERATLLEEQLPLGKASFHIPQVQVRDEGQYQCIIIYGVAWDYKYLTLKVKASYRKINTHILKVPETDEVELTCQATGYPLAEVSWPNVSVPANTSHSRTPEGLYQVTSVLRLKPPPGRNFSCVFWNTHVRELTLASIDLQSQMEPRTHPT
notes: characterized by SEC prior to use; also called huPD-L2; B7-DC; source: bought: R&D Systems

Key:
[1] = biological target: human mature dendritic cells expressing PD-L1 and PD-L2
[2] = biological target: T1, full-length human PD-1 I126A, on HEK293 cells (human, UniProt Q15116 25-288, I126A); assay: flow cytometry on cells; HEK293 cells transiently transfected with full-length wild type or mutant human PD-1, incubated with PD-L1 or PD-L2 Ig fusion proteins (0.01–50 μg/ml) for one hour on ice; APC anti-human IgG F(ab')2 Fcγ specific; MFI normalized to wild type PD-1 binding; relative binding at 0.5 μg/ml ligand; conditions: one partner purified
T1 construct: Gateway pEF5/FRT/V5-DEST destination vector; source: HEK293, transiently transfected, on the cell surface
T1 sequence (Q15116 25-288 I126A): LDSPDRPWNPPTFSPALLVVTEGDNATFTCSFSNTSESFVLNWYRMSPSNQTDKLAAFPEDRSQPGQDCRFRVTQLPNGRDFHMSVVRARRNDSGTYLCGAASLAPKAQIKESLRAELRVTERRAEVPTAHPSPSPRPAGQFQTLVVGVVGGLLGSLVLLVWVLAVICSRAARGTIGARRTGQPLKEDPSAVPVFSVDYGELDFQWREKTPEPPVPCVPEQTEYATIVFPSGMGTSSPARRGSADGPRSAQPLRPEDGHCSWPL

[3] = biological target: T2, human PD-L1 Ig fusion protein (human, UniProt Q9NZQ7 19-238); assay: SPR; BIAcore 3000, 25 °C; PD-L1-Ig or PD-L2-Ig immobilized on CM5 chip by amine coupling; soluble monomeric PD-1 or mutants (0.01–100 μM) injected at 20 μl/min; equilibrium Kd, 1:1 Langmuir model; conditions: both partners purified
T2 construct: characterized by SEC prior to use; detected on cells with anti-human IgG Fcγ-specific F(ab')2; also called huPD-L1; B7-H1; source: bought: R&D Systems
T2 sequence (Q9NZQ7 19-238): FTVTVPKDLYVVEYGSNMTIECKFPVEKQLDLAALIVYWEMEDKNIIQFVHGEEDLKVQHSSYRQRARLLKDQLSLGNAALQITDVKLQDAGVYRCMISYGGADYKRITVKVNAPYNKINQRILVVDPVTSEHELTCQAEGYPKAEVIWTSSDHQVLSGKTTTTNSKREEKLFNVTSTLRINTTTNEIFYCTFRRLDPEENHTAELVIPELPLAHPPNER

[4] = biological target: B1; assay: as above; conditions: both partners purified

“high-affinity human PD-1 (A132L) Ig fusion protein (from UniProt Q15116 25-170) (Fc fusion)” gave a T cell proliferation (3H-thymidine uptake) in allogeneic MLR with dendritic cells pre-treated with HA PD-1 Ig (0.5–5 μg/ml), against untreated control [1] of over 50% and a production of IFN-γ and IL-12p70 in allogeneic MLR, against untreated control (no Ig) [1] of over 6 fold.

With B1 the “reduction of binding relative to wild type PD-1” value [2] was 50%.

B2: mouse PD-1, wild type (soluble, monomeric) (domain or fragment, UniProt Q02242 25-169, looked up)
chain: LEVPNGPWRSLTFYPAWLTVSEGANATFTCSLSNWSEDLMLNWNRLSPSNQTEKQAAFCNGLSQPVQDARFQIIQLPNRHDFHMNILDTRRNDSGIYLCGAISLHPKAKIEESPGAELVVTERILETSTRYPSPSPKPEGRFQGM
notes: mouse PD-1, soluble monomeric form used as SPR analyte; the construct used here is not described; also called mPD-1; murine PD-1
For B2, the Kd [3] was 4.02 µM and the Kd [4] was 10.7 µM.
